Three molecules from article PMC2661964, “Mammalian Kinesin-3 Motors Are Dimeric In Vivo and Move by Processive Motility upon Release of Autoinhibition” (PLoS Biology, 2009) can be followed below.

One data set concerns the target mCit-KHC. Nature of the data set: FRET or BRET; FRET stoichiometry (average FRET efficiency, E AVE) in live COS cells coexpressing mCit- and mCFP-tagged motors; Kinesin-1 with HA-KLC coexpressed.
A further data set has as its target KHC(1–891)-3xmCit. Nature of the data set: stepwise photobleaching of single molecules (TIRF microscopy); lysates of COS cells expressing 3xmCit-tagged constructs, in flow chambers with Cy5-microtubules, with AMPPNP; number of bleaching steps of 160–200 spots for each construct.
Data set [1] deals with the molecule itself. Kind of data set: cross-linking; cytosolic extracts of rat brain and detergent extracts of murine cortical neurons, with or without DMP; SDS-PAGE, immunoblot with anti-KIF1A. (In general: In western blotting, separated proteins are transferred to a membrane and probed.)

For orientation: stoichiometry N means a count of units in the complex or per binding partner.

Molecule mCFP-KHC (natural protein) had an average FRET efficiency (E AVE), motor-to-motor in the data set with mCit-KHC of 2.1%. KHC(1–891)-3xmCit (domain or fragment) registered a stoichiometry N in the data set with KHC(1–891)-3xmCit of 2.

B1: endogenous KIF1A in murine cortical neurons (natural protein, UniProt P33173 1-1695, looked up)
chain: MAGASVKVAVRVRPFNSREMSRDSKCIIQMSGSTTTIVNPKQPKETPKSFSFDYSYWSHTSPEDINYASQKQVYRDIGEEMLQHAFEGYNVCIFAYGQTGAGKSYTMMGKQEKDQQGIIPQLCEDLFSRINDTTNDNMSYSVEVSYMEIYCERVRDLLNPKNKGNLRVREHPLLGPYVEDLSKLAVTSYNDIQDLMDSGNKPRTVAATNMNETSSRSHAVFNIIFTQKRHDAETNITTEKVSKISLVDLAGSERADSTGAKGTRLKEGANINKSLTTLGKVISALAEMDSGPNKNKKKKKTDFIPYRDSVLTWLLRENLGGNSRTAMVAALSPADINYDETLSTLRYADRAKQIRCNAIINEDPNNKLIRELKDEVTRLRDLLYAQGLGDITDMTNALVGMSPSSSLSALSSRAASVSSLHERILFAPGSEEAIERLKETEKIIAELNETWEEKLRRTEAIRMEREALLAEMGVAMREDGGTLGVFSPKKTPHLVNLNEDPLMSECLLYYIKDGVTRVGREDAERRQDIVLSGHFIKEEHCIFRSDSRGGGEAVVTLEPCEGADTYVNGKKVTEPSILRSGNRIIMGKSHVFRFNHPEQARQERERTPCAETPAEPVDWAFAQRELLEKQGIDMKQEMEQRLQELEDQYRREREEATYLLEQQRLDYESKLEALQKQMDSRYYPEVNEEEEEPEDEVQWTERECELALWAFRKWKWYQFTSLRDLLWGNAIFLKEANAISVELKKKVQFQFVLLTDTLYSPLPPDLLPPEAAKDRETRPFPRTIVAVEVQDQKNGATHYWTLEKLRQRLDLMREMYDRAAEVPSSVVEDCDNVVTGGDPFYDRFPWFRLVGRAFVYLSNLLYPVPLVHRVAIVSEKGEVKGFLRVAVQAISADEEAPDYGSGVRQSGTAKISFDDQHFEKFQSESCPVVGMSRSGTSQEELRIVEGQGQGADAGPSADEVNNNTCSAVPPEGLMDSPEKAALDGPLDTALDHLRLGSTFTFRVTVLQASSISAEYADIFCQFNFIHRHDEAFSTEPLKNTGRGPPLGFYHVQNIAVEVTKSFIEYIKSQPIVFEVFGHYQQHPFPPLCKDVLSPLRPSRRHFPRVMPLSKPVPATKLSTMTRPSPGPCHCKYDLLVYFEICELEANGDYIPAVVDHRGACMGTFLLHQGIQRRITVTLLHETGSHIRWKEVRELVVGRIRNTPETDEALIDPNILSLNILSSGYVHPAQDDRVFFGNDTRTFYQFEAAWDSSMHNSLLLNRVTPYREKIYMTLSAYIEMENCTQPAVITKDFCMVFYSRDAKLPASRSIRNLFGSGSLRATEGNRVTGVYELSLCHVADAGSPGMQRRRRRVLDTSVAYVRGEENLAGWRPRSDSLILDHQWELEKLSLLQEVEKTRHYLLLREKLETTQRPGPEVLSPASSEDSESRSSSGASSPLSAEGQPSPLEAPNERQRELAVKCLRLLMHTFNREYTHSHVCISASESKLSEMSVTLMRDPSMSPLGAATLTPSSTCPSLIEGRYGATDVRTPQPCSRPASPEPELLPELDSKKTPSPVRATETEKEPQRLLVPDIQEIRVSPIVSKKGYLHFLEPHTAGWAKRFVVVRRPYAYMYNSDKDTVERFVLNLSTAQVEYSEDQQAMLKTPNTFAVCTEHRGILLQANSDKDMHDWLYAFNPLLAGTIRSKLSRRRSAQMRV
notes: KIF1A, endogenous protein of murine cortical neurons; source: endogenous, detergent extract of murine cortical neurons
With B1, the “stoichiometry N” value in data set [1] was found to be 2.
